EC50 of beta-lactamase reporter response in TrkB-NFAT-bla CHO-K1 cells data for one substance are collected here from patent publication US20230000998A1.

This assay concerns the target human TrkB receptor (overexpressed on TrkB-NFAT-bla CHO-K1 reporter cells) (human) (UniProt Q16620). The experiment in a line: cell-based or functional assay.

Sequence of human TrkB receptor (overexpressed on TrkB-NFAT-bla CHO-K1 reporter cells) (human) (Q16620 32-822): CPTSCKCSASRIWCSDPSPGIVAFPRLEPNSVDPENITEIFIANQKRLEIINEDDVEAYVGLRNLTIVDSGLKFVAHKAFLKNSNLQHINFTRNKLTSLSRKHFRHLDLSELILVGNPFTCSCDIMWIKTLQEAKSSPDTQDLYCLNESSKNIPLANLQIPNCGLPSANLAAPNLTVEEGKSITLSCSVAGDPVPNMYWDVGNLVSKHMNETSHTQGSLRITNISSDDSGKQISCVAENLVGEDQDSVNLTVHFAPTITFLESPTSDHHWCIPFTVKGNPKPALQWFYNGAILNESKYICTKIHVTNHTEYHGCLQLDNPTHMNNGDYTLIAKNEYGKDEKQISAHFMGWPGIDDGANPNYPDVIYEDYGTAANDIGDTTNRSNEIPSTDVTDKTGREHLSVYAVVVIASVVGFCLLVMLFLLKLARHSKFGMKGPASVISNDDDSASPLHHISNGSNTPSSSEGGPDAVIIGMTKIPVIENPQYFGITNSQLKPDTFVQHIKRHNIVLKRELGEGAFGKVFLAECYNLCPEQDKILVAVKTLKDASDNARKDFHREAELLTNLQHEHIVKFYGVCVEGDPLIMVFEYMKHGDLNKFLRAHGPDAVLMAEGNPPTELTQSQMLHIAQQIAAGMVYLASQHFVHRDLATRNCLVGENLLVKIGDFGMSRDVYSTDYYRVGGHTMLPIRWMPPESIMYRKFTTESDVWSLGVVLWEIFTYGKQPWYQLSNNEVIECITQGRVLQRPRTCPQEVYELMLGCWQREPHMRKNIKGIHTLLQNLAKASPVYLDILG

“BDNF (brain derived neurotrophic factor; Peprotech) (from UniProt P23560 129-247) (ligand)”: the EC50 of beta-lactamase reporter response in TrkB-NFAT-bla CHO-K1 cells came out at 0.055 nM.
